T1: peptide PRP1 (QPDHPPPSPP), LexA bait
T1 peptide: QPDHPPPSPP

T2: peptide PRP2 (PPPYQAPHPP), LexA bait
T2 peptide: PPPYQAPHPP

T3: peptide PBS2 (NKPLPPLPVA), LexA bait (S. cerevisiae)
T3 peptide: NKPLPPLPVA

B1: Myo5p-SH3-AD (1020-1219) (domain or fragment)
chain: NKAATRRSVPNPASTLTASQSNARPSPPTAATRATPAATPAAAAMGSGRQANIPPPPPPPPPSSKPKEPMFEAAYDFPGSGSPSELPLKKGDVIYITREEPSGWSLGKLLDGSKEGWVPTAYMKPHSGNNNIPTPPQNRDVPKPVLNSVQHDNTSANVIPAAAQASLGDGLANALAARANKMRLESDDEEANEDEEEDDW
B2: SH3 domain of Sho1p (176-367) (domain or fragment)
chain: not shown

Columns and labels:
Assay in all cases: two-hybrid
[1] = molecular target: T1, peptide PRP1 (QPDHPPPSPP), LexA bait
[2] = molecular target: T2, peptide PRP2 (PPPYQAPHPP), LexA bait
[3] = molecular target: T3, peptide PBS2 (NKPLPPLPVA), LexA bait

Row | Binder | LacZ expression (two-hybrid) [1] [Miller units] | LacZ expression (two-hybrid) [2] [Miller units] | LacZ expression (two-hybrid) [3] [Miller units]
1 | B1 | 406 | 255 | 
2 | B2 |  |  | 190

Source: article PMC2174279 (The Journal of Cell Biology, 2000)
